Assay: soluble fraction after stress (log2 fold change); higher = more stays soluble; pooled small domains, quantitative proteomics
Conditions: stress: pH 4
How it was run: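 Values are log2 fold changes, and higher ones mean more of the domain stayed soluble. Each fold change reflects the soluble amount of a domain after acid stress and is taken as a measure of aggregation propensity. The stress was pH 4, applied to pooled custom libraries of small protein domains analysed by high-throughput quantitative proteomics.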

Sequence	soluble fraction (log2)
HMAAADLNMRAKLADLGGMSYGELSIWEKTHGMEFAAWEHEWEKLNSGTQADGLKFPKHLPEGFPT	0.116
HMAAAKDVMDWQNAIRGLTDAKGKPYSPTYLKTVHNQLSALFNHAVRYYGLQVNPAAKAGNMGVEE	0.00664
HMAADDGSARAEQLREMYSLISGLDKLDKAIILMWLDERSYDEIAEVTGFTRNNVATRLHRIKSRLARQSN	-1.19
HMAAEIGSGVVDAYDLRLRSQPSTDAETIIYLDNGAKLSVQEDLGDWYKVVSGTYTGYVSAEYVAYTPSPE	-1.7
HMAAELHPYGADSYRGDNPPAGYEIKAKEESKKFHTPSSPWYGRTIAEIWFRTEEAAEAAGFINAVK	-0.272
HMAAELQALSVRELEVLDQLAGGASNREIAQRLYISENTVRNHVHSILTKLKLQNRTQLVGMT	-0.705
HMAAESWTEKSRALAAAGLVVMGRDAQTKIEELTNLAPLIEAANASNTRLLTSQSIDELLSIVPTEENL	-0.0379
HMAAGKGVTTGSVRLRKGSNTDSAIIATLKKDTELILYGKKDGWYSVKTSDGTEGFVSSKYVKVTEAY	-0.297
HMAAGLTPKQKAFADNYIKNGGNAAEAARAAGYSLKNVGANAGKLLKNPKIAAYIAEKQAELDRRNGT	-0.13
HMAAINPSALREPATPPEQLSAGDSVLHPRFGRGEILELQQQGGDPRAIVQFINEPKPRTLVLRYAQLRK	0.0977
HMAAKADAVKKAIAAIGKVDASEDSKAKVEAARKAYAALTEDQKKLVEASQLKLLTEAEAAYQQAVEESKK	-0.0736
HMAAMSLGERIGAHRKRMGISQEELGHRMGVSRQAVSKWETGRAVPDMENLLALARLFGVPVSELAD	-0.0628
HMAAPVGLTQRQMEVAALVADGLTNAEIGRRLHITERSAESHLERVRIRLGFRSRAQVAAWFVTQE	-0.493
HMAATHYEGIKQDGETDDAVIERVLTGLSVTANKDDIFIVKTLIAGTKYSYTAYVYNGNAWAAM	-0.255
HMAATSTGFPGVEVRGNSIRVFFMYKRDRHAHTLPLEPTRNNIKHADQLRSAALFALRNGTYNEADFFPHS	-0.509
HMAATVKVPDLTKMTPDEAQRALGQVGLKGKQGDDVDDDSVPVGYIAKQDEAPNSDAKAGDTITYHL	0.171
HMAAVSSHAVKQRIRSLIQAEDPASPLSDEALRLALSALGVEVSRRAVAKYRTSMDIPASSQRKK	0.238
HMADEDTILALAKEILASWPDKVEAYKNGNKGMLGLFMGELMKKSGGKANPKSASALIQKLLE	-0.231
HMADEIQLVVQVNGKLRGRIMVAPDASREEIEKTALADADVSRFLGDTPVKKVIIVPKRLVNIVAPAPK	0.0692
HMADENIELRKAGLKVTLPRVKILQILEAAKEPHMSAEDVYKALMEANEEVGLATVYRVLTQFESAGL	-0.232
HMADGKWTLTDAGYTFTYSDGRKARGTWEDIDGEWYHFDRNGIMETGWKTVGNIRYHFNQDGSL	-0.363
HMADIGRMKELIDILNRASAVYYQGKDEIMSNFEYDKLYDELVSLEKESGLVLAGSPTQKVGY	-0.0716
HMADKHVAAALLKLMDHLVGGRQYAFMKGRLTINKKVVLEATEVSAYRRGTGLSDADWQQRYE	-0.978
HMADLKRLNEQIHYLGQYLSTKATYKEFLQANNKKIYRSEHQDEIAKYEEAAQFLKRSSPDGTIPTMKDLR	0.0861
HMADLSAYAGKEGMTDSVLRPSGKVDIEGHILDAVSRGDFIEKGKRVIVIKAEGSYLVVKKRMP	0.166
HMADLTEEQKTLFRLIRDLQPVSSKTLLENSGFTRSTQTRLLNGLIEKQIVIRTGNGPATRYSLR	-0.307

Sequence	soluble fraction (log2)
HMADLTIDGVEYTKVSPTGTLTLEKVYTKNVTPADGQYYIQTGTKTVRVATDAEVAVIKAGGF	0.247
HMADNKDMQAAFMEALNGLKEYAKVNGNIVTKEDVNSYFKDMHLDDNKYSMITGYLMANGITIKG	-0.432
HMADPRFHSEIMLSKIESLLSGKADSDVSNYSIQGRSLTKMSLQELMDARESYDGLVKSEKAKLDAKY	-0.218
HMADPVTPQDLIRWSEALAGIARTGLGFTQSLYEQERFEEVLAVAADMRVAAGSSYNPDDLVHEWMKSVG	-0.34
HMADQVVGQLGMVTQRIDNLQQTGRVSANGLDWAARSENGQPIPQGMPVEVLRIEGVKLIVRPVN	-0.00119
HMADTIEVVVQVNGKVRAKISTSPEVFADSTKLQELALADANVQKFIAGQTIRKVIIPKGTKLLNIV	-0.55
HMADTSPEGVQKLIKAFEQFGVSKDDIEGFIQRRVDAITPANVVSLRKIFTSLRDGMSSAKDWFKGA	-0.325
HMADVIKLVNTSVLNVRSGAGINYSKIGSLTQGTKVNIISESNGWSKINYNGKIGYISSQYVSEVS	0.324
HMADVLLKHGSSGDYVWDLQYRLKTLSLFDQEMTGYFGPHTRQAVVNFQRKYGLPADGVVGPATWRALRK	-0.551
HMADVPSTIFEAYRILGLNPEAPPVAVKKVVDALRMSWHPDHARSEPDRRHREERIKQINAAWDLLKGV	-0.128
HMADVYFDGKFLGETPVTVAVSTTGKPAHEISLIRGGYEPWSTTYQGNPRPGQTATVMAILVHA	-0.121
HMAEAAVELSQQILARLLEAGGSLPLSDKSSPEDIHRLFGVSKRTFKKAIGGLYKKGLILIHPERIELP	-0.0448
HMAEAETVKFVGNSLLLVSGAAKGERLSVYTVGGQHVLSADATKPVDVAALHSGVYVVRTTNGVITKIVK	0.0831
HMAEATATVTASEMVVRSGPSSSYSVLGSLEKGTVVTVLAASDGIAKISYKGNTGYARIVDMELNSA	0.37
HMAEDDAVQKAVREAVAESADAVADYKAGSERALNFIVGVVMKKTRGKASPGEVHRLVKAEVEK	0.143
HMAEDLRTLDGIDEDLLRDLAQAGITTRDGLAELSIDELREITGVEPGEAEKIILAARAHWFETDE	-1.19
HMAEEGEQAASNTAAQAEDRAAELAAAGEKGKQITKTLVAEFGIPKNEAYRLALDAVAAVKAER	-0.427
HMAEEPLRIWTDLQGRSIEASFIKFSGNNIVIKMKSGRDYEVARSLFSPGDQKYLSDLKKSTPE	-0.0706
HMAEERVLSVPQSLAGERLDAALASLMPDYSRSRLASWIKEGLVTVDGAGAMPKQKLWGGETLRVQAQPT	0.0973
HMAEKAVELTENEKAIQTILSNGALEIGELKTKLELSGKQWDVALKGLAKHGITQVSKVEGVVTVGL	0.124
HMAEKGIGRVNADWLNMRTSPGGEVLTVLKQGTELQVIGRSGSWLEVQHGNEQGYVSSRYITIQP	0.132
HMAEKVIVVADSITVGELAEKLNLPVTNLIGELFKNGIVSTINQRIDFETASIIVEELGLDVELERK	-0.96
HMAELNLPVRKIGGEDYYYRQVKKKETIYGISKELGITKEDIIKYNPSVASGLQRNQILYFPVKDFK	0.322
HMAELVISVKADGTIHYQDRQLTKEALAAVLETRPEALLNLYVDEKAPFEAFVGVVDIARLKRGGHFVIST	-0.947
HMAENPAYTKGVVNRLYKIRATPYYSYSYNVDQKTYEGRGKQYGEYENLHIGDTITVYYQRSNPSNSEA	-0.112
HMAEPIEKIIIEGNQRIEALTIQSYLLLRVGEPFNRQLMNQTLKSLYATGYFSDVAVTRVSSSLLVK	-0.0595

Sequence	soluble fraction (log2)
HMAEPLEIGDTVRIIDGFYGGEIGVISELVNPDAKNAEFEQVRVRLDQDTELALPIHNVERVRL	-0.0894
HMAEPRVQEVYFEFDGKQVEAGQVVSLIEQAYKNEGHQIGRIKDLKVYINSEEGKAYYVINGDDGEGKYIE	-0.67
HMAESLHVTAAALFEGRAMLGIDGSRRLLRVGETSPEGVKLVSATAREAVIEIDGRRQTLAPGRDT	0.0589
HMAESSLPKMPRDESKYIYHSVQPGETVYSLSKRYSVSESDIVKSNPGIDITKLSLGLEVAIPRI	0.0402
HMAEVAFEEQNIEQISNLLLRIQAIFAELMTALDKEKGGEIADNLERLYVFFLEKLGDANVRKDPAP	-0.135
HMAEVHVDGVTYQFSNPEQAVKFARKIAKELGLKVEVHGETVHVK	0.0901
HMAEVTLTVREQEVLHLLARGMSNGEMAAHLYVEPTTIKYHLTGLLQKTGSRDRLQAVLWGIRAGMVH	-1.15
HMAEWIYGKNVVKQSIEEGMVLKLILQRKEDPLFVLAQEKQIPVEILDRHKMTSLVKSDRHQGVAAQI	-0.645
HMAFEDYAGEYRSAADFAESLHEDTGTEIPESLRYYIDWQALARDMALNGEIMVFQTGFDEVHIFWS	-0.878
HMAFEITSAERTRLEDIARKGLTAYTAEWKQLPASEKKALNKTGLQDFLKSMAADADSAREEEA	0.0412
HMAFKEQLKAARLAKGYTQEQLATAIGVAKSTFTGYEKGNSEPNMLTIKKLMEILEVDANYLWY	-1.44
HMAFRWQQIADTITSMIANGSYPRGSRLPTEAALADSFGVNRHTVRRAVAALRDTGLVQPRQGAGVFVIG	-0.103
HMAFYQDIAVDLRKQIIDGVYPKNSRLPNQAELAKLYTTSRVTIQKALKILQIEGLIEGRQGSGSYVKGP	0.0757
HMAGHKVDFSELPARSQAFIGKNFPTEMVKNVEMERKDAKDHYTVLLSNGTKVMFDGTSGELTGV	0.0825
HMAGISQGLAENVERRITTLLREQKEVPVHDIDFPGISRETVGQVLHQMVQEEKLLLDDGMISLSPNQ	-0.229
HMAGPAGASEVANARDGDDETPLHMAARGGYPGIVRMLLAAGAKADAKSAAGLFPWNYAEDGSELHALLPR	-0.0731
HMAGPTIVTNSQGVPNYHLVKRGDTVSQIAQRYGLNYRQIGAINNLDSKYTIYSGQWLKLWQG	-0.00755
HMAGQWQQDQNGWKYKTDNGDHMKNTWYQDSDSRWYYFGPDGYMKSSTMTPDGYVVGSDGAWIE	-1.63
HMAGSGDLNAKYLASIPAPMKAKILKAVANHYGVSISEFEEEVTDKDAEALYEYIPTRSMAVQVLRDMKG	0.199
HMAGSGLPVPRFVSLADDRVNARAGPGFRFPINWVYLRKGFPVEVVDEFGPWRRIRDIDGVAAWIHLSMLS	-0.848
HMAGTAFPVRIMLKGIDRIGLLNEITGYISVAMGVNMRKLNLSTEDGIFEGYIDMLVHDRTVLESMIDNL	0.22
HMAGTELASIKEIQSLVDRSEEALSARNFFWPKDKSESMLLSFRNMFSRLKLTKMDVQIFHGIFKVMEKS	0.0341
HMAGVSVTSLTTFWRLAADTPDTPSGADDPSGWSRTEPSIPDGYEGKLYRTIRTIMSDGTATWTSPD	0.0531
HMAGYDTYMVDRDAELLPWLLETLQRESRSKVKATLQGNGIKVNGKRVTQFNYPLKAGMKVSVSKSK	0.129

— the domain aggregation screens of Martell et al. (2025)
